B2: Cdc48 ATPase (wild type, untagged) (enzyme, S. cerevisiae, UniProt P25694 1-835, looked up)
chain: MGEEHKPLLDASGVDPREEDKTATAILRRKKKDNMLLVDDAINDDNSVIAINSNTMDKLELFRGDTVLVKGKKRKDTVLIVLIDDELEDGACRINRVVRNNLRIRLGDLVTIHPCPDIKYATRISVLPIADTIEGITGNLFDVFLKPYFVEAYRPVRKGDHFVVRGGMRQVEFKVVDVEPEEYAVVAQDTIIHWEGEPINREDEENNMNEVGYDDIGGCRKQMAQIREMVELPLRHPQLFKAIGIKPPRGVLMYGPPGTGKTLMARAVANETGAFFFLINGPEVMSKMAGESESNLRKAFEEAEKNAPAIIFIDEIDSIAPKRDKTNGEVERRVVSQLLTLMDGMKARSNVVVIAATNRPNSIDPALRRFGRFDREVDIGIPDATGRLEVLRIHTKNMKLADDVDLEALAAETHGYVGADIASLCSEAAMQQIREKMDLIDLDEDEIDAEVLDSLGVTMDNFRFALGNSNPSALRETVVESVNVTWDDVGGLDEIKEELKETVEYPVLHPDQYTKFGLSPSKGVLFYGPPGTGKTLLAKAVATEVSANFISVKGPELLSMWYGESESNIRDIFDKARAAAPTVVFLDELDSIAKARGGSLGDAGGASDRVVNQLLTEMDGMNAKKNVFVIGATNRPDQIDPAILRPGRLDQLIYVPLPDENARLSILNAQLRKTPLEPGLELTAIAKATQGFSGADLLYIVQRAAKYAIKDSIEAHRQHEAEKEVKVEGEDVEMTDEGAKAEQEPEVDPVPYITKEHFAEAMKTAKRSVSDAELRRYEAYSQQMKASRGQFSNFNFNDAPLGTTATDNANSNNSAPSGAGAAFGSNAEEDDDLYS

The target of test [1] is B2. Briefly: pull-down.
In test [2] the target is T1, SBP-tagged Ufd1/Npl4 heterodimer (SBP tag on Ufd1) (S. cerevisiae, UniProt P53044 1-361; P33755 1-580).
T1 sequence (looked up) 1: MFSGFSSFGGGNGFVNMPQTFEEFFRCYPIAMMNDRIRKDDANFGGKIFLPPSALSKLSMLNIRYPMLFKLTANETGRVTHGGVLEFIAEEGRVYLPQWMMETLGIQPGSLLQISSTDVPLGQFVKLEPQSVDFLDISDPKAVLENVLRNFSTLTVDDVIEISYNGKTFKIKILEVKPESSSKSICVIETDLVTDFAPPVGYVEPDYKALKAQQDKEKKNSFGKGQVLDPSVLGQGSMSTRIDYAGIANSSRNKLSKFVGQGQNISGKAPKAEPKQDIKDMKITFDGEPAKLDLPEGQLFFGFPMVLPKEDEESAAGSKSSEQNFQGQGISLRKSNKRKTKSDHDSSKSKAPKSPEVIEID
T1 sequence (looked up) 2: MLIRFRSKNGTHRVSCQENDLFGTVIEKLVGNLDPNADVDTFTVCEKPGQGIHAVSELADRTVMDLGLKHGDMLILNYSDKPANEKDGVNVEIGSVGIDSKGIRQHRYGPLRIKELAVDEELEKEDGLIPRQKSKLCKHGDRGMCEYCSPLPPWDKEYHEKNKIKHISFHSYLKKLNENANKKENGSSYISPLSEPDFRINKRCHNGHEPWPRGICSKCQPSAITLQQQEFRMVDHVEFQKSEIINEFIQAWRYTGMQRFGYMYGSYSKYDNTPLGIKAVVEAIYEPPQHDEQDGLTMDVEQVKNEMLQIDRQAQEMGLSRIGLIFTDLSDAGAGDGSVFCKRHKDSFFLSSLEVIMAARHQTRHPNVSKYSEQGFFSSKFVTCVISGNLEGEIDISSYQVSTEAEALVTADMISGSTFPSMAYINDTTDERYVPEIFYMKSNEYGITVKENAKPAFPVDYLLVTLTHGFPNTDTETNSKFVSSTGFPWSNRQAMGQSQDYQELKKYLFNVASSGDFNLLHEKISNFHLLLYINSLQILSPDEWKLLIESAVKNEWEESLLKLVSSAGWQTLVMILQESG
Briefly: pull-down.

B1: Otu1 (wild type) (enzyme, UniProt P43558 1-301, looked up)
chain: MKLKVTGAGINQVVTLKQDATLNDLIEHINVDVKTMRFGYPPQRINLQGEDASLGQTQLDELGINSGEKITIESSDSNESFSLPPPQPKPKRVLKSTEMSIGGSGENVLSVHPVLDDNSCLFHAIAYGIFKQDSVRDLREMVSKEVLNNPVKFNDAILDKPNKDYAQWILKMESWGGAIEIGIISDALAVAIYVVDIDAVKIEKFNEDKFDNYILILFNGIHYDSLTMNEFKTVFNKNQPESDDVLTAALQLASNLKQTGYSFNTHKAQIKCNTCQMTFVGEREVARHAESTGHVDFGQNR
On to B1, for which the binding result in test [1] is on record as “binds”.

Consider B2, for which the binding result in test [2] is on record as “binds”.

The values are drawn from paper PMC5751438 (Cell, 2017).
